T1: BTN2A1 ectodomain homodimer, disulfide-linked (C-terminal Cys247, acidic or basic leucine zipper) (human, UniProt Q7KYR7 29-248; Q7KYR7 29-248)
T1 construct: Biotinylated and immobilised on a streptavidin chip in SPR; also called immobilized BTN2A1 homodimer; immobilised BTN2A1 ectodomain homodimer; not shown: linker and acidic leucine zipper; linker and basic leucine zipper
T1 sequence 1: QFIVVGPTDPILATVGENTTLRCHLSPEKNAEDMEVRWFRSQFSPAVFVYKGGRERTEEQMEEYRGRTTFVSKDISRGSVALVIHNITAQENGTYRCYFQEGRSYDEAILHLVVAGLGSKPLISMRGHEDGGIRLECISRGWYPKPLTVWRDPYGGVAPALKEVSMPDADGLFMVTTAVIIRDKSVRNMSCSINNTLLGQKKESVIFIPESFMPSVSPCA
T1 sequence 2: T1 sequence 1

B1: soluble BTN3A1 ectodomain (IgV-IgC), homodimer (ligand)
chain: not shown
notes: C-terminal biotin ligase (AviTag) and His6 tags; Analyte or immobilised ligand in SPR; streptavidin-PE tetramer in flow cytometry; also called BTN3A1 ectodomain homodimer; full-length BTN3A1 ectodomain
B2: monomeric BTN3A1 IgV domain (ligand)
chain: not shown
B3: soluble BTN2A1 ectodomain lacking Cys247 (monomeric) (ligand)
chain: QFIVVGPTDPILATVGENTTLRCHLSPEKNAEDMEVRWFRSQFSPAVFVYKGGRERTEEQMEEYRGRTTFVSKDISRGSVALVIHNITAQENGTYRCYFQEGRSYDEAILHLVVAGLGSKPLISMRGHEDGGIRLECISRGWYPKPLTVWRDPYGGVAPALKEVSMPDADGLFMVTTAVIIRDKSVRNMSCSINNTLLGQKKESVIFIPESFMPSVSP
notes: C-terminal biotin ligase (AviTag) and His6 tags; Used as SPR analyte and in crystals; also called monomeric BTN2A1 ectodomain; full-length BTN2A1 ectodomain

Experiments:
[1] = target: T1, BTN2A1 ectodomain homodimer, …; experiment: SPR, equilibrium; disulfide-linked BTN2A1 homodimer immobilised, soluble BTN3A1 ectodomain injected
Procedure: (§1) SPR experiments were conducted at 25° C. on a Biacore T200 instrument (GE Healthcare) using 10 mM HEPES-HCl (pH 7.4), 150 mM NaCl, 3 mM EDTA, and 0.05% Tween 20 buffer. Biotinylated BTN ectodomains were immobilized to 1,500-2,000 resonance units (RU) on a Biacore sensor chip SA pre-immobilized with streptavidin. Soluble BTN molecules or G115 γδTCR were two-fold serially diluted and simultaneously injected over test and control surfaces at a rate of 30 μl/min. After subtraction of data from the control flow cell (BTN1A1) and blank injections, interactions were analyzed using Biacore T200 evaluation software (GE Healthcare), Scrubber (Biologic) and Prism version 9 (GraphPad), and equilibrium dissociation constants were derived at equilibrium.

[2] = target: T1, BTN2A1 ectodomain homodimer, …; experiment: SPR, equilibrium; BTN2A1 homodimer immobilised, soluble BTN3A1 IgV domain injected
Procedure: as §1

[3] = target: B1; experiment: SPR, soluble monomeric BTN3A1 IgV domain over immobilised BTN3A1 homodimer
Procedure: SPR experiments were conducted at 25° C. on a Biacore T200 instrument (GE Healthcare) using 10 mM HEPES-HCl (pH 7.4), 150 mM NaCl, 3 mM EDTA, and 0.05% Tween 20 buffer. Biotinylated BTN ectodomains were immobilized to 1,500-2,000 resonance units (RU) on a Biacore sensor chip SA pre-immobilized with streptavidin. Soluble BTN molecules or G115 γδTCR were two-fold serially diluted and simultaneously injected over test and control surfaces at a rate of 30 μl/min.

[4] = target: T1, BTN2A1 ectodomain homodimer, …; experiment: SPR; BTN2A1 ectodomain homodimer immobilised, soluble BTN2A1 ectodomain injected
Procedure: as §1

[5] = target: B1; experiment: SPR, equilibrium; BTN3A1 homodimer immobilised, soluble monomeric BTN2A1 ectodomain injected
Procedure: as §1

Binder: B1
- Kd [1]: 500 µM

Binder: B2
- Kd [2]: 1.1 mM
- binding result [3]: no binding (tested: 1,590 µM)

Binder: B3
- binding result [4]: no binding
- Kd [5]: ~1.8 mM
